B1: Tripartite motif-containing protein 10 (Homo sapiens), Q9UDY6 (parent)
chain: MASAASVTSLADEVNCPICQGTLREPVTIDCGHNFCRACLTRYCEIPGPDLEESPTCPLCKEPFRPGSFRPNWQLANVVENIERLQLVSTLGLGEEDVCQEHGEKIYFFCEDDEMQLCVVCREAGEHATHTMRFLEDAAAPYREQIHKCLKCLRKEREEIQEIQSRENKRMQVLLTQVSTKRQQVISEFAHLRKFLEEQQSILLAQLESQDGDILRQRDEFDLLVAGEICRFSALIEELEEKNERPARELLTDIRSTLIRCETRKCRKPVAVSPELGQRIRDFPQQALPLQREMKMFLEKLCFELDYEPAHISLDPQTSHPKLLLSEDHQRAQFSYKWQNSPDNPQRFDRATCVLAHTGITGGRHTWVVSIDLAHGGSCTVGVVSEDVQRKGELRLRPEEGVWAVRLAWGFVSALGSFPTRLTLKEQPRQVRVSLDYEVGWVTFTNAVTREPIYTFTASFTRKVIPFFGLWGRGSSFSLSS
partner: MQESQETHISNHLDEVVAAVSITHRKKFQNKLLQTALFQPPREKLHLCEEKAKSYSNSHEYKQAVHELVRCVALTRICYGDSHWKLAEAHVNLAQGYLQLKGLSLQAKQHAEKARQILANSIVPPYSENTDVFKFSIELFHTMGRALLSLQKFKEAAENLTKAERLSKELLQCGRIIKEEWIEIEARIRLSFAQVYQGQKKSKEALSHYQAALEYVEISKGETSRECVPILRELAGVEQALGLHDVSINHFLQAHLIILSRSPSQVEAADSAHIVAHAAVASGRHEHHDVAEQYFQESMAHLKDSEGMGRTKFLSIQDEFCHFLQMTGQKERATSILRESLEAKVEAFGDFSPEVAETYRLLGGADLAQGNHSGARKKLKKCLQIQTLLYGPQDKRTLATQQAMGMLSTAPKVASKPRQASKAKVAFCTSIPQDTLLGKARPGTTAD
B2: Origin recognition complex subunit 6 (Homo sapiens), Q9Y5N6 (parent)
chain: MGSELIGRLAPRLGLAEPDMLRKAEEYLRLSRVKCVGLSARTTETSSAVMCLDLAASWMKCPLDRAYLIKLSGLNKETYQSCLKSFECLLGLNSNIGIRDLAVQFSCIEAVNMASKILKSYESSLPQTQQVDLDLSRPLFTSAALLSACKILKLKVDKNKMVATSGVKKAIFDRLCKQLEKIGQQVDREPGDVATPPRKRKKIVVEAPAKEMEKVEEMPHKPQKDEDLTQDYEEWKRKILENAASAQKATAE
partner: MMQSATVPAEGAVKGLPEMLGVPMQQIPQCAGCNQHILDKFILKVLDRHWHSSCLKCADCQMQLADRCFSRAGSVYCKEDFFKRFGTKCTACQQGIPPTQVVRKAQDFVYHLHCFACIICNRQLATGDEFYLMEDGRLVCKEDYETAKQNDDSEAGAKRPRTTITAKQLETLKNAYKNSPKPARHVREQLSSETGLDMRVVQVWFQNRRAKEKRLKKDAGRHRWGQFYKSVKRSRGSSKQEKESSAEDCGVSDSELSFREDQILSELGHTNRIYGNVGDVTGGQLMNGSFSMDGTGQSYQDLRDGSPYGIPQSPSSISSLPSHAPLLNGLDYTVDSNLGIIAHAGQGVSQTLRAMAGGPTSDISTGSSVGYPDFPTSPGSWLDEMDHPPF
B3: Zinc finger protein 544 (Homo sapiens), Q6NX49 (parent)
chain: MEARSMLVPPQASVCFEDVAMAFTQEEWEQLDLAQRTLYREVTLETWEHIVSLGLFLSKSDVISQLEQEEDLCRAEQEAPRDWKATLEENRLNSEKDRAREELSHHVEVYRSGPEEPPSLVLGKVQDQSNQLREHQENSLRFMVLTSERLFAQREHCELELGGGYSLPSTLSLLPTTLPTSTGFPKPNSQVKELKQNSAFINHEKNGADGKHCESHQCARAFCQSIYLSKLGNVETGKKNPYEYIVSGDSLNYGSSLCFHGRTFSVKKSDDCKDYGNLFSHSVSLNEQKPVHFGKSQYECDECRETCSESLCLVQTERSGPGETPFRCEERCAAFPMASSFSDCNIIQTTEKPSVCNQCGKSFSCCKLIHQRTHTGEKPFECTQCGKSFSQSYDLVIHQRTHTGEKPYECDLCGKSFTQRSKLITHQRIHTGEKPYQCIECRKSFRWNSNLIVHQRIHTGEKPYECTHCGKSFSQSYELVTHKRTHTGEKPFKCTQCGKSFSQKYDLVVHQRTHTGEKPYECNLCGKSFSQSSKLITHQRIHTGEKPYQCIECGKSFRWNSNLVIHQRIHTGEKPYDCTHCGKSFSQSYQLVAHKRTHTGEKPYECNECGKAFNRSTQLIRHLQIHTGEKPYKCNQCNKAFARSSYLVMHQRTHTGEKPFECSQCGKAFSGSSNLLSHHRIHSGEKPYECSDCGKSFRQQSQLVVHRRTHTGEKP
B4: Rhophilin-1 (Homo sapiens), Q8TCX5 (parent)
chain: MILEERPDGAGAGEESPRLQGCDSLTQIQCGQLQSRRAQIHQQIDKELQMRTGAENLYRATSNNRVRETVALELSYVNSNLQLLKEELEELSGGVDPGRHGSEAVTVPMIPLGLKETKELDWSTPLKELISVHFGEDGASYEAEIRELEALRQAMRTPSRNESGLELLTAYYNQLCFLDARFLTPARSLGLFFHWYDSLTGVPAQQRALAFEKGSVLFNIGALHTQIGARQDRSCTEGARRAMEAFQRAAGAFSLLRENFSHAPSPDMSAASLCALEQLMMAQAQECVFEGLSPPASMAPQDCLAQLRLAQEAAQVAAEYRLVHRTMAQPPVHDYVPVSWTALVHVKAEYFRSLAHYHVAMALCDGSPATEGELPTHEQVFLQPPTSSKPRGPVLPQELEERRQLGKAHLKRAILGQEEALRLHALCRVLREVDLLRAVISQTLQRSLAKYAELDREDDFCEAAEAPDIQPKTHQKPEARMPRLSQGKGPDIFHRLGPLSVFSAKNRWRLVGPVHLTRGEGGFGLTLRGDSPVLIAAVIPGSQAAAAGLKEGDYIVSVNGQPCRWWRHAEVVTELKAAGEAGASLQVVSLLPSSRLPSLGDRRPVLLGPRGLLRSQREHGCKTPASTWASPRPLLNWSRKAQQGKTGGCPQPCAPVKPAPPSSLKHPGWP
B5: Notch homolog 2 N-terminal-like protein A (Homo sapiens), Q7Z3S9 (parent)
chain: MCVTYHNGTGYCKCPEGFLGEYCQHRDPCEKNRCQNGGTCVAQAMLGKATCRCASGFTGEDCQYSTSHPCFVSRPCLNGGTCHMLSRDTYECTCQVGFTGKECQWTDACLSHPCANGSTCTTVANQFSCKCLTGFTGQKCETDVNECDIPGHCQHGGTCLNLPGSYQCQCLQGFTGQYCDSLYVPCAPSPCVNGGTCRQTGDFTFECNCLPETVRRGTELWERDREVWNGKEHDEN
partner: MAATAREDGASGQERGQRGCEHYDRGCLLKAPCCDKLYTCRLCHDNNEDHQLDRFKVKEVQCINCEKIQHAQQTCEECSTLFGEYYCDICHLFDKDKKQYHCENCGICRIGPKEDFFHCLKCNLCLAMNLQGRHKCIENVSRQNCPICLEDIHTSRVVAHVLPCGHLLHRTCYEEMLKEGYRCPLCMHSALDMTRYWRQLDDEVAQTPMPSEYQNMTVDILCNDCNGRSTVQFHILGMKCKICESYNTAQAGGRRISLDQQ
B6: Probable RNA-binding protein EIF1AD (Homo sapiens), Q8N9N8 (parent)
chain: MSQATKRKHVVKEVLGEHIVPSDQQQIVRVLRTPGNNLHEVETAQGQRFLVSMPSKYRKNIWIKRGDFLIVDPIEEGEKVKAEISFVLCKDHVRSLQKEGFWPEAFSEVAEKHNNRNRQTQPELPAEPQLSGEESSSEDDSDLFVNTNRRQYHESEEESEEEEAA
B7: Cyclin-D1-binding protein 1 (Homo sapiens), O95273 (parent)
chain: MASATAPAAAVPTLASPLEQLRHLAEELRLLLPRVRVGEAQETTEEFNREMFWRRLNEAAVTVSREATTLTIVFSQLPLPSPQETQKFCEQVHAAIKAFIAVYYLLPKDQGITLRKLVRGATLDIVDGMAQLMEVLSVTPTQSPENNDLISYNSVWVACQQMPQIPRDNKAAALLMLTKNVDFVKDAHEEMEQAVEECDPYSGLLNDTEENNSDNHNHEDDVLGFPSNQDLYWSEDDQELIIPCLALVRASKACLKKIRMLVAENGKKDQVAQLDDIVDISDEISPSVDDLALSIYPPMCHLTVRINSAKLVSVLKKALEITKASHVTPQPEDSWIPLLINAIDHCMNRIKELTQSELEL
partner: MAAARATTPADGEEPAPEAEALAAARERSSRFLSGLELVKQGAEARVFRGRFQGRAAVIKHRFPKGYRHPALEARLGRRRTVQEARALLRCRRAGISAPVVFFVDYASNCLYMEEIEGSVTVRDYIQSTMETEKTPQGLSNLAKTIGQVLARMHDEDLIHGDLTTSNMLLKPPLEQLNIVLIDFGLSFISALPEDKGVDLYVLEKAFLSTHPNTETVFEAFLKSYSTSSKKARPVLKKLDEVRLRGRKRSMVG

Variants of: B1
Conditions: with ttc23_human TTC23, Q5W5X9

effect of a mutation on the interaction | Variant
with no effect | Q210L
with no effect | R216K

Second part, the variant before the results:

Variant | effect of a mutation on the interaction
D30N | with no effect
Q161E | with no effect

Variants of: B2
Conditions: with lhx4_human LHX4, Q969G2

effect of a mutation on the interaction | Variant
with no effect | K201N

Variants of: B3
Conditions: with traf2_human TRAF2, Q12933
Sequence of traf2_human TRAF2, Q12933 (Q12933 whole entry): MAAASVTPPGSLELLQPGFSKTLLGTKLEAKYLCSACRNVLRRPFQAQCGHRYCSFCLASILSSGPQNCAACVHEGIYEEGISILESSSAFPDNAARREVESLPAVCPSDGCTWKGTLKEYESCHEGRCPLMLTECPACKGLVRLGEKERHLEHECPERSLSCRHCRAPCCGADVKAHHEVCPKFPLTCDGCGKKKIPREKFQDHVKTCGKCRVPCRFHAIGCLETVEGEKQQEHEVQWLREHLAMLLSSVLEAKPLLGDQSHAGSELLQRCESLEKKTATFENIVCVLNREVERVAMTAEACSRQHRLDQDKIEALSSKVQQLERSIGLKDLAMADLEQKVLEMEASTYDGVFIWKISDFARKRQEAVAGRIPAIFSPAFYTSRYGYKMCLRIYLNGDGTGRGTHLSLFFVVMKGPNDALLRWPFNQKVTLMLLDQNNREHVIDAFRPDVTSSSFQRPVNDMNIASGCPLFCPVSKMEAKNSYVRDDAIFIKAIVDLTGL

effect of a mutation on the interaction | Variant
disrupting interaction strength | K406M

Variants of: B4
Conditions: with mtus2_human MTUS2, Q5JR59
Sequence of mtus2_human MTUS2, Q5JR59 (Q5JR59 whole entry): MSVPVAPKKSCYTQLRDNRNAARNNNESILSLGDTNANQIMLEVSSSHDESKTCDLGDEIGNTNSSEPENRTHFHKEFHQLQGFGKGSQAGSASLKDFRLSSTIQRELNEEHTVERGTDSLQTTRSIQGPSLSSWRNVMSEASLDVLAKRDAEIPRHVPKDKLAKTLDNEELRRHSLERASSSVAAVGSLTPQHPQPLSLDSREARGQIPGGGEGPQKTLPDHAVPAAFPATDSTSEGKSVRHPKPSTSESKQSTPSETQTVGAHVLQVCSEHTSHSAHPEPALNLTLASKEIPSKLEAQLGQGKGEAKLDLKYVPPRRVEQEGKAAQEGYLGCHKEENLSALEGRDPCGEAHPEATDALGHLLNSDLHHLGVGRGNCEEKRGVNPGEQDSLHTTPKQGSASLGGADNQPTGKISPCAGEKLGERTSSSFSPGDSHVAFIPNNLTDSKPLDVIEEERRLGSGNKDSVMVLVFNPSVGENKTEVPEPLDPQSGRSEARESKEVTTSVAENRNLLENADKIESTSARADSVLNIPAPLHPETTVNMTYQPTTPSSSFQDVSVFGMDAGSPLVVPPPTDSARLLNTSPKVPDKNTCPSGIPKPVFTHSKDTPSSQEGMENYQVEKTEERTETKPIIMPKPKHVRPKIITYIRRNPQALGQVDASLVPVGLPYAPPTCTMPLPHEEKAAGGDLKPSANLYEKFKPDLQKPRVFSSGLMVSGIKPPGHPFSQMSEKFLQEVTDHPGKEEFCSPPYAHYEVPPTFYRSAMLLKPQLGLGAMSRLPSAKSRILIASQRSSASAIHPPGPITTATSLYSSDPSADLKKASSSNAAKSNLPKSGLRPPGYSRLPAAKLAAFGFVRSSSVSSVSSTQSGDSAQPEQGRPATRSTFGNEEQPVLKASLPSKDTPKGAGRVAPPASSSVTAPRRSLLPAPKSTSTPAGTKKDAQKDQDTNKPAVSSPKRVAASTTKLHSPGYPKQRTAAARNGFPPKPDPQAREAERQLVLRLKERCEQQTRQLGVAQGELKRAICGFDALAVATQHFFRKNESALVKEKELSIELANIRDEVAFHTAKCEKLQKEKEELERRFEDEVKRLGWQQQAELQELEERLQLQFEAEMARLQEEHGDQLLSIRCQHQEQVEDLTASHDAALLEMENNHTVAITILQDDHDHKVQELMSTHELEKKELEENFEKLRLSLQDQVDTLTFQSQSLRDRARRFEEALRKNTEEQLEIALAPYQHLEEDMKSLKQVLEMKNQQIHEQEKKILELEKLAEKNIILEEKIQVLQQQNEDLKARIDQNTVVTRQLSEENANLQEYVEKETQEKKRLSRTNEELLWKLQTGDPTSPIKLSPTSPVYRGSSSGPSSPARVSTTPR

effect of a mutation on the interaction | Variant
with no effect | A536T

Variants of: B5
Conditions: with zn363_human RCHY1, Q96PM5

effect of a mutation on the interaction | Variant
with no effect | A115T
with no effect | R74Q

Variants of: B6
Conditions: with tbcd5_human TBC1D5, Q92609
Sequence of tbcd5_human TBC1D5, Q92609 (Q92609 whole entry): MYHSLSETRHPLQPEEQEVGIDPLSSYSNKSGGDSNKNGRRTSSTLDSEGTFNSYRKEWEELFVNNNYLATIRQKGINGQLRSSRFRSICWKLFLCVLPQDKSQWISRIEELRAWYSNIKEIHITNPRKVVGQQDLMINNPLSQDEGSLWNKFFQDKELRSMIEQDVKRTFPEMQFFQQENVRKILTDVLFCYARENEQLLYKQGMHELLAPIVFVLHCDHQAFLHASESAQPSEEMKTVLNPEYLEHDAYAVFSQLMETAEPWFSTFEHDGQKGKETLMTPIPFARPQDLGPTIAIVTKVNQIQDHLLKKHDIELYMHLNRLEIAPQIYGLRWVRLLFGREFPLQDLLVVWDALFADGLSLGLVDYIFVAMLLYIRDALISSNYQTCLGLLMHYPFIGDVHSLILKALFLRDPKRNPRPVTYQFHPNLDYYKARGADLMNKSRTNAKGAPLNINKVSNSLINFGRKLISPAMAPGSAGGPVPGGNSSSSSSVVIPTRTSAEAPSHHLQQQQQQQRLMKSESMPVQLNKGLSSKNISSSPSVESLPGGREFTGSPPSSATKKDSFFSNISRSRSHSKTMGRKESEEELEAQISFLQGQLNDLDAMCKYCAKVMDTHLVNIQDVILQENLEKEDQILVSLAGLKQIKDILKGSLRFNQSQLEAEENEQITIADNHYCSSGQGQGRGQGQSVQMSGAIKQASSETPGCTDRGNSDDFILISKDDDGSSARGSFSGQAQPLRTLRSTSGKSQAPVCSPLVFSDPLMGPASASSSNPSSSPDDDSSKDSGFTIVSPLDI

effect of a mutation on the interaction | Variant
with no effect | R48C

Variants of: B7
Conditions: with prpk_human TP53RK

effect of a mutation on the interaction | Variant
disrupting interaction strength | I277T

— IntAct's records for PubMed 31515488
